Results taken from paper PMC2924879.
Where two headings read alike, the source gives them in different places.

Columns and labels:
Assay in all cases: AUC
[1] = biological target: vMIP-II L13F (human herpesvirus-8)
[2] = biological target: vMIP-II L13F (human herpesvirus-8); remark: listed apart in the source
[3] = biological target: vMIP-II L13F (human herpesvirus-8); remark: listed apart in the source

Substance: vMIP-II L13F (natural protein)
- Kd [1]: 41 µM
- stoichiometry N [1]: 2
- Kd [2]: 0.74 µM
- Kd [3]: 129 µM
